The record followed here is patent US20150133651, “CslA9 Gluco-mannan Synthase Gene” (published 2015).

The target in series [1] is MYB83 (At3g08500) (Arabidopsis thaliana, UniProt Q9C6U1 Q9C6U1:1-343). Kind of series: EMSA; 10 mM Tris pH 7.5, 50 mM KCl, 5 mM MgCl2, poly(dI-dC). To be noted: tags: GST fusion, E. coli Rosetta gami; label: 32P. On the procedure:
(§1) DNA fragments for EMSA were obtained by PCR-amplification and labeled with [γ-³²P]ATP using T4 polynucleotide kinase (NEB). The end-labeled probes were purified with Microspin S-200 HR column (GE Healthcare). The labeled DNA fragments were incubated for 25 min with 50 ng of GST-MYB46, GST-MYB83, GST-bZIP1 and GSTANAC041 in a binding buffer [10 mM Tris (pH 7.5), 50 mM KCl, 1 mM DTT, 2.5% glycerol, 5 mM MgCl₂, 100 μg/ml BSA, and 50 ng/μL poly(dI-dC)]. Five percent polyacrylamide gel electrophoresis (PAGE) was used to separate the recombinant protein-bound DNA fragments from the unbound ones. The gel was dried and placed in a film cassette and exposed to X-ray film (Kodak) for overnight. Radioactive fragments were visualized by autoradiography.

In series [2] the target is MYB46 (Arabidopsis thaliana, UniProt Q9LXV2 SEQ:1-280). Briefly: EMSA; 10 mM Tris pH 7.5, 50 mM KCl, 5 mM MgCl2, poly(dI-dC); competed by 50x unlabeled probe. As to conditions: tags: GST fusion, E. coli Rosetta gami; label: 32P. On the procedure:
as §1
To evaluate whether MYB46 could directly bind to the CSLA9 promoter sequence, electrophoretic mobility shift assays (EMSAs) were performed with the GST-MYB46 fusion protein as described in Example 1.
(A gel shift assay detects complexes by their altered migration in electrophoresis.)

Sequence of MYB83 (At3g08500) (Q9C6U1 whole entry, the tested form may be a part, one chain of several): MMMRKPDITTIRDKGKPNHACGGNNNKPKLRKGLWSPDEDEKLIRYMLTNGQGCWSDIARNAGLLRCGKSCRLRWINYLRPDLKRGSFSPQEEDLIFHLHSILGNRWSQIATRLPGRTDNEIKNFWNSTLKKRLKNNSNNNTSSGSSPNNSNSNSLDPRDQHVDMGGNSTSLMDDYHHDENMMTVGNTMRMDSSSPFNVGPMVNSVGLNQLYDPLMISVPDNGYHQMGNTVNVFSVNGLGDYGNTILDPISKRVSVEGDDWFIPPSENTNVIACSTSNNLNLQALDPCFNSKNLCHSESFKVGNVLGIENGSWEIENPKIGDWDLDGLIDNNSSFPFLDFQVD
Sequence of MYB46 (Q9LXV2 whole entry, the tested form may be a part): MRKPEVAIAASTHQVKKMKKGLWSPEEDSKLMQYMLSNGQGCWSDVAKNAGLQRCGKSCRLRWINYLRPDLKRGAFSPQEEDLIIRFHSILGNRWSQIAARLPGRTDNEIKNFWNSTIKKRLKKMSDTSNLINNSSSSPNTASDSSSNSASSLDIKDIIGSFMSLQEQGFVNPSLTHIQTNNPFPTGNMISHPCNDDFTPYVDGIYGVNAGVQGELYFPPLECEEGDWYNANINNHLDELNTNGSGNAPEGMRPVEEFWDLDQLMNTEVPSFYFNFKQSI

B1: CSLA9 promoter -705 to -556 (dsDNA)
DNA 1: CTTAAAATAACAATTTGTTTTGTATCTTCGCCTGGACGTCATTAATGTTTGTGTCGTTCAATAATGTTTGGTAGTTATATATAGAAAGAGCAAATTTATGGTTGATTGATGGTGCAAAAAAATTCATTTCTCTATATTCTAGAGAAATAA
DNA 2: TTATTTCTCTAGAATATAGAGAAATGAATTTTTTTGCACCATCAATCAACCATAAATTTGCTCTTTCTATATATAACTACCAAACATTATTGAACGACACAAACATTAATGACGTCCAGGCGAAGATACAAAACAAATTGTTATTTTAAG
For B1, the binding result in series [1] and in series [2] was “binds” throughout.
